# Test results reported in PMC9424855, “Obligately aerobic human gut microbe expresses an oxygen resistant tungsten-containing oxidoreductase for detoxifying gut aldehydes” (Frontiers in Microbiology, 2022).
# Key:
# [1] = biological target: Brevibacillus massiliensis tungsten-containing oxidoreductase (BmWOR) (Brevibacillus massiliensis)
# BmWOR = BmWOR (Brevibacillus massiliensis, UniProt Z9C1J5R5O5); experiment: benzyl viologen reduction followed at […] nm; conditions: apparent Km; benzyl viologen 1 mM as electron acceptor, 50 mM HEPES pH 7.5, 35 °C, anaerobic
# O=Cc1ccccc1 = experiment: purified protein; conditions: apparent Km, benzyl viologen 1 mM as electron acceptor, 50 mM HEPES pH 7.5, 35 °C, anaerobic
# O=Cc1ccco1 = experiment: purified protein; conditions: apparent Km, benzyl viologen 1 mM as electron acceptor, 50 mM HEPES pH 7.5, 35 °C, anaerobic
# O=C/C=C/c1ccccc1 = experiment: purified protein; conditions: apparent Km, benzyl viologen 1 mM as electron acceptor, 50 mM HEPES pH 7.5, 35 °C, anaerobic
# CC(C)CC=O = experiment: purified protein; conditions: apparent Km, benzyl viologen 1 mM as electron acceptor, 50 mM HEPES pH 7.5, 35 °C, anaerobic
# BmWOR, sequence (Z9C1J5R5O5 1-602): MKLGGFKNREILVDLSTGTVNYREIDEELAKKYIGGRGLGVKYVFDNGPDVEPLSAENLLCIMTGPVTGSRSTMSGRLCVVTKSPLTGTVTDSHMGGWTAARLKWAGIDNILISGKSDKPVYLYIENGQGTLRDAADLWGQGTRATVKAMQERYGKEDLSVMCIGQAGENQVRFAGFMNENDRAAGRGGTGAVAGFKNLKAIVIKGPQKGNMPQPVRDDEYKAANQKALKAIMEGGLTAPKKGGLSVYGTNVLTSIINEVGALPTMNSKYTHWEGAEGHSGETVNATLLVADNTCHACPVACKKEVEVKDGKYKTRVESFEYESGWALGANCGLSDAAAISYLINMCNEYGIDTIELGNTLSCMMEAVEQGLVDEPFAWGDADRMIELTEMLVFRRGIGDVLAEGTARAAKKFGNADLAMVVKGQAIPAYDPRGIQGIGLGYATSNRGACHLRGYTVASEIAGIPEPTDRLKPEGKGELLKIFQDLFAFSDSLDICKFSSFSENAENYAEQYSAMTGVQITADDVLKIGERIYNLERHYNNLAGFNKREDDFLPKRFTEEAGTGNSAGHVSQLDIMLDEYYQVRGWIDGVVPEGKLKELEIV
substance,measurement,setting,value
Brevibacillus massiliensis ferredoxin (BmFd) (natural protein),"apparent Km for Fd as electron acceptor of BmWOR in the benzaldehyde oxidation assay (enzyme activity, Fd reduction followed at 425 nm)",[1],< 5 µM
Tolualdehyde,Km,BmWOR,6.1 ± 2.1 µM
BmWOR (Brevibacillus massiliensis),Km,O=Cc1ccccc1,4.2 ± 1.0 µM
same,Km,O=Cc1ccco1,2.1 ± 2.0 µM
same,Km,O=C/C=C/c1ccccc1,5.6 ± 1.2 µM
same,Km,CC(C)CC=O,3.6 ± 0.9 µM
